This is an account of results in the RNAGym collection of RNA variant scans (doi:10.1073/pnas.2313332121).

B1: TPR t1 (parent)
chain: GACCAAUCUGCCCUCAGAGCUCGAGAACAUCUUCGGAUGCAGAGGAGGCAGGCUUCGGUGGCGCGAUAGCGCCAACGUCCUCAACCUCCAAUGCAUCCCACCACAUGAUGAUGCCUGAAGAGCCUUGGUUUUUUG

In this data set the parent is B1. The experiment in a line: polymerase ribozyme fitness, log enrichment relative to wild type (log ratio); higher = more active; in vitro selection for triplet polymerase activity. Summed up: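 To select mutant libraries of each subunit of a heterodimeric triplet polymerase ribozyme, built by PCR and transcribed, each was annealed with a biotinylated primer, partner subunit and triplets, then incubated frozen at −7 °C. Extended constructs were gel-excised, captured on streptavidin beads and amplified by RT-PCR, in one round carried out in triplicate. Illumina sequencing of input and output libraries kept genotypes with ≥10 input reads and ≥1 read per output. Fitness is the base-2 logarithm of genotype enrichment relative to wild-type enrichment, from inverse-variance-weighted replicate averages.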
On to C70U U109C, for which the “polymerase ribozyme fitness (log ratio)” value is -3.68.
With G71U C94G G113C U126G, the “polymerase ribozyme fitness (log ratio)” value is -6.21.
Regarding C70U U78C C101A, the “polymerase ribozyme fitness (log ratio)” value was -1.6.
C70G G122A: the “polymerase ribozyme fitness (log ratio)” value is -3.06.
With C70G G122U the figure was -2.27.
Consider G71A A91G, for which the “polymerase ribozyme fitness (log ratio)” value was -2.18.
Regarding C70G U129A, the “polymerase ribozyme fitness (log ratio)” value was -4.27.
As for C70G G110U, the “polymerase ribozyme fitness (log ratio)” value is -4.62.
For G71A C94U C102A U112G G120A the value was -4.87.
As to G71A U112A, the “polymerase ribozyme fitness (log ratio)” value stood at 0.323.
With G71C C79U C101U the figure was -0.546; with C70U C79G C114A, -6.1; with C70U C82G G117U, -3.92.
As for C70U A91U, the “polymerase ribozyme fitness (log ratio)” value was -3.34.
On to C70U A121G, for which the “polymerase ribozyme fitness (log ratio)” value is -0.18.
In the case of C70U A121U, the “polymerase ribozyme fitness (log ratio)” value was determined as 0.918.
Turning to G71A A90G, the “polymerase ribozyme fitness (log ratio)” value is -1.65.
Take G71A A90C G120A: the “polymerase ribozyme fitness (log ratio)” value is -1.97.
Regarding G71U G135U, the “polymerase ribozyme fitness (log ratio)” value is -1.02.
In the case of G71A U78C C123U U131A, the “polymerase ribozyme fitness (log ratio)” value was -0.879.
On to G71C U81A G120U, for which the “polymerase ribozyme fitness (log ratio)” value was -1.99.
C70U G77U C94A U116C A121C: the “polymerase ribozyme fitness (log ratio)” value is -2.35.
For the variant C70G C123U, the “polymerase ribozyme fitness (log ratio)” value is -0.882.
On to C70U A74U, for which the “polymerase ribozyme fitness (log ratio)” value is -0.47.
Take C70U A74G: the “polymerase ribozyme fitness (log ratio)” value is -1.83.
Turning to G71C G93C, the “polymerase ribozyme fitness (log ratio)” value was -1.98.
For the variant C70G U78G A119G, the “polymerase ribozyme fitness (log ratio)” value is -1.17.
In the case of C70G G77A, the “polymerase ribozyme fitness (log ratio)” value was -1.74.
As to C70U G110U U112G, the “polymerase ribozyme fitness (log ratio)” value was -6.05.
As to C70U C85A C94U U112C, the “polymerase ribozyme fitness (log ratio)” value is -0.466.
Consider C70U A100C, for which the “polymerase ribozyme fitness (log ratio)” value was -1.61.
For C70U A100U the value was -1.33; for G71U G93C, -2.12; for G71U G93A, -0.562.
With C72A A111G A121C the figure was 1.27.
With G71A G93C A95C the figure was -2.61; with G71A C80U, -2.57; with C70U G71C, -1.67.
As for C70U G71A, the “polymerase ribozyme fitness (log ratio)” value was -1.05.
Turning to G71C U87G C98U G113C, the “polymerase ribozyme fitness (log ratio)” value was -4.17.
Regarding G71C A111U, the “polymerase ribozyme fitness (log ratio)” value is -4.31.
As for C72A C79G, the “polymerase ribozyme fitness (log ratio)” value is -1.13.
For G71A C94A, the “polymerase ribozyme fitness (log ratio)” value is -2.86.
Take G71A U81G A83U: the “polymerase ribozyme fitness (log ratio)” value is -6.59.
In the case of G71C C85A G117A, the “polymerase ribozyme fitness (log ratio)” value was -2.67.
For C72A C80G C114A C123G U126A the value was -6.21; for G71A G113U, -3.89; for G71A G113A, -1.22.
For the variant C70U U87A C97U U112A C115U G127A, the “polymerase ribozyme fitness (log ratio)” value was -4.04.
In the case of G71U C99U C115A, the “polymerase ribozyme fitness (log ratio)” value is -2.82.
In the case of C70G U78C U92C, the “polymerase ribozyme fitness (log ratio)” value is -5.65.
Consider G71A A84U, for which the “polymerase ribozyme fitness (log ratio)” value is -1.02.
For C70U C115U the value was -1.84; for G71C C82A A100U G120U, -1.87; for C70U C94U, -0.0504.
Regarding C70U U87G G120C, the “polymerase ribozyme fitness (log ratio)” value was 1.04.
As to C70U U78A, the “polymerase ribozyme fitness (log ratio)” value is -1.17.
With G71C G135C the figure was -1.39; with C70U A111U, -4.03; with C70U A111C, -0.279.
Regarding G71U C123U, the “polymerase ribozyme fitness (log ratio)” value is 0.812.
For G71U C123G, the “polymerase ribozyme fitness (log ratio)” value came to 0.824.
Consider G71U C123A, for which the “polymerase ribozyme fitness (log ratio)” value was 1.94.
Consider C70U U129A, for which the “polymerase ribozyme fitness (log ratio)” value is -1.55.
For the variant G71A A84G C102A C115G, the “polymerase ribozyme fitness (log ratio)” value was -6.59.
As to G71A C104A U129A, the “polymerase ribozyme fitness (log ratio)” value is -4.5.
With G71A C85U G120C, the “polymerase ribozyme fitness (log ratio)” value was found to be 0.00346.
As for G71A C82A C89U, the “polymerase ribozyme fitness (log ratio)” value was -1.01.
In the case of C70U U87C C89A G120C, the “polymerase ribozyme fitness (log ratio)” value was -2.9.
Turning to G71C A121G, the “polymerase ribozyme fitness (log ratio)” value is 0.226.
With G71A C114A the figure was -1.41.
Take G71U C104A U126C: the “polymerase ribozyme fitness (log ratio)” value is -3.21.
Take G71C C101A A121U U126G: the “polymerase ribozyme fitness (log ratio)” value is -0.863.
As for C70U U81A, the “polymerase ribozyme fitness (log ratio)” value is -3.3.
G71A A75G C104U: the “polymerase ribozyme fitness (log ratio)” value was -0.612.
As for C70U G117U, the “polymerase ribozyme fitness (log ratio)” value is -3.24.
As for G71U C86U, the “polymerase ribozyme fitness (log ratio)” value is -0.637.
For C70U C76G G77A G113C, the “polymerase ribozyme fitness (log ratio)” value is -3.85.
As for C70U G113A C123A, the “polymerase ribozyme fitness (log ratio)” value was -2.31.
Regarding G71A C79U C123U, the “polymerase ribozyme fitness (log ratio)” value was determined as 1.66.
For C70G U81A the value was -5.64; for C70G U81C, -3.83.
For C70U C97U the value was -0.226; for C72A A91G U92G G113C, -2.41.
Consider C70U C102A G127A, for which the “polymerase ribozyme fitness (log ratio)” value was -3.84.
For C70U U96C C99U C102U, the “polymerase ribozyme fitness (log ratio)” value was -6.59.
As for G71C C114A G127U, the “polymerase ribozyme fitness (log ratio)” value is -5.17.
With G71A U96G the figure was -1.35.
C70U U126G: the “polymerase ribozyme fitness (log ratio)” value is -3.3.
Take C70U U126C: the “polymerase ribozyme fitness (log ratio)” value was -0.89.
For C72A C76A the value was -1.85.
On to C70U A91U G113A, for which the “polymerase ribozyme fitness (log ratio)” value was -2.99.
With G71C, the “polymerase ribozyme fitness (log ratio)” value was -1.04.
Consider G71U, for which the “polymerase ribozyme fitness (log ratio)” value was -0.118.
Turning to G71A, the “polymerase ribozyme fitness (log ratio)” value is -0.673.
On to G71U C98U, for which the “polymerase ribozyme fitness (log ratio)” value was -2.33.
With G71U C114U, the “polymerase ribozyme fitness (log ratio)” value is -1.41.
As to G71U G120A, the “polymerase ribozyme fitness (log ratio)” value was found to be 0.754.
With G71U G120U the figure was -0.136; with G71A A111G G120U, -2.5.
For G71A C115A, the “polymerase ribozyme fitness (log ratio)” value is -2.31.
For G71A C115U the value was -1.95; for G71U G117U, -1.78.
With G71A C79A C85U, the “polymerase ribozyme fitness (log ratio)” value is -2.89.
With G71U U112G the figure was -0.608; with G71U C76G, -2.91; with C70U C85A C102A, -5.05.
With G71A A74U the figure was -3.83; with G71C U81A U109A, -6.73; with G71C G113A A121G U133A, -1.06.
On to G71U C102A, for which the “polymerase ribozyme fitness (log ratio)” value was -2.25.
Regarding C70U G113A, the “polymerase ribozyme fitness (log ratio)” value is -1.39.
Consider G71U G120A C123U U133G, for which the “polymerase ribozyme fitness (log ratio)” value was -3.23.
On to G71A U78C C114G, for which the “polymerase ribozyme fitness (log ratio)” value is -5.04.
On to G71U G93U C104U A119G, for which the “polymerase ribozyme fitness (log ratio)” value was found to be 0.516.
For C70U U132C, the “polymerase ribozyme fitness (log ratio)” value is -0.89.
With C70U C97A C102G U109G G117A the figure was -6.26.
On to C70U C82U G93U, for which the “polymerase ribozyme fitness (log ratio)” value was -1.52.
As to C70U U106G C124U, the “polymerase ribozyme fitness (log ratio)” value was -1.06.
On to C72A A100U U106C, for which the “polymerase ribozyme fitness (log ratio)” value was -0.411.
Regarding G71U C97A C115U A119G, the “polymerase ribozyme fitness (log ratio)” value was -5.37.
Regarding C70G C123G U131C, the “polymerase ribozyme fitness (log ratio)” value came to 0.0447.
On to G71U C82A C88A, for which the “polymerase ribozyme fitness (log ratio)” value is -1.39.
With C70G U112G the figure was -2.86.
As for C70G U112A, the “polymerase ribozyme fitness (log ratio)” value is -1.98.
Regarding C70U U92C C97U C123U, the “polymerase ribozyme fitness (log ratio)” value is -0.926.
As to G71C U112G, the “polymerase ribozyme fitness (log ratio)” value is -1.66.
In the case of C70U U78C A105U G120C U130A, the “polymerase ribozyme fitness (log ratio)” value was -3.59.
G71U C80G G107U G117A: the “polymerase ribozyme fitness (log ratio)” value is -6.69.
With C70G U112G U125C the figure was -3.92; with G71A G77U, -1.13.
As for G71A U81A A84U, the “polymerase ribozyme fitness (log ratio)” value is -2.93.
For G71U C97U the value was -0.285; for G71U C99G, -8.12.
As to C70U U125G G127A, the “polymerase ribozyme fitness (log ratio)” value is -1.83.
Take G71U C80A U116G G117U A119U: the “polymerase ribozyme fitness (log ratio)” value was -7.09.
In the case of C70U C72G U92A A108U U112C G113A A121G, the “polymerase ribozyme fitness (log ratio)” value is -6.12.
Regarding G71C C115A, the “polymerase ribozyme fitness (log ratio)” value was -1.07.
On to G71U A83U C99A A105C C123U, for which the “polymerase ribozyme fitness (log ratio)” value was -7.02.
C70U C76U G113C C123A: the “polymerase ribozyme fitness (log ratio)” value was -5.89.
For G71U A75G, the “polymerase ribozyme fitness (log ratio)” value was -0.135.
Turning to G71A C124G, the “polymerase ribozyme fitness (log ratio)” value came out at 0.316.
C72A C76G U112G A119G: the “polymerase ribozyme fitness (log ratio)” value was -0.512.
For G71U G110A the value was -1.39; for G71U G110C, -3.69; for G71A U81C C88A C123G G135U, -0.881.
As for C70U, the “polymerase ribozyme fitness (log ratio)” value is -0.414.
In the case of C70U U96G U125A, the “polymerase ribozyme fitness (log ratio)” value is -1.32.
For G71U U133G, the “polymerase ribozyme fitness (log ratio)” value came to 0.225.
For C70U G93A, the “polymerase ribozyme fitness (log ratio)” value was -0.708.
For the variant C70U G93U, the “polymerase ribozyme fitness (log ratio)” value is -1.7.
For C70U U81A U116G U125A the value was -5.57; for G71A C99U U106C, -5.44; for G71U A119U, -0.434.
C70U G110A: the “polymerase ribozyme fitness (log ratio)” value is -1.77.
In the case of G71U U109A, the “polymerase ribozyme fitness (log ratio)” value was -4.43.
As to G71U A74U C104A G117A C124U, the “polymerase ribozyme fitness (log ratio)” value is -5.66.
For G71U G127A the value was -1.25.
On to C72A A95C, for which the “polymerase ribozyme fitness (log ratio)” value is -0.926.
For G71U U78A C80U C114G the value was -2.44.
Regarding C70U G107A, the “polymerase ribozyme fitness (log ratio)” value is -5.06.
As to C70U G107U, the “polymerase ribozyme fitness (log ratio)” value was -4.87.
For the variant G71A C79G C124G U125A, the “polymerase ribozyme fitness (log ratio)” value was -3.71.
For the variant C72A A111U, the “polymerase ribozyme fitness (log ratio)” value was -2.42.
On to C72A A111C, for which the “polymerase ribozyme fitness (log ratio)” value was -0.314.
In the case of C70G C124A, the “polymerase ribozyme fitness (log ratio)” value is -1.21.
On to G71U G77C C89U G128C, for which the “polymerase ribozyme fitness (log ratio)” value was -4.14.
